# Publication PMC4810252
# B1: BST-2/tetherin: N65/92A (protein)
# parent chain: MASTSYDYCRVPMEDGDKRCKLLLGIGILVLLIIVILGVPLIIFTIKANSEACRDGLRAVMECRNVTHLLQQELTEAQKGFQDVEAQAATCNHTVMALMASLDAEKAQGQKKVEELEGEITTLNHKLQDASAEVERLRRENQVLSVRIADKKYYPSSQDSSSAAAPQLLIVLLGLSALLQ
# B2: BST-2/tetherin: N65A (protein)
# parent chain: MASTSYDYCRVPMEDGDKRCKLLLGIGILVLLIIVILGVPLIIFTIKANSEACRDGLRAVMECRNVTHLLQQELTEAQKGFQDVEAQAATCNHTVMALMASLDAEKAQGQKKVEELEGEITTLNHKLQDASAEVERLRRENQVLSVRIADKKYYPSSQDSSSAAAPQLLIVLLGLSALLQ
# B3: BST-2/tetherin: N92A (protein)
# parent chain: MASTSYDYCRVPMEDGDKRCKLLLGIGILVLLIIVILGVPLIIFTIKANSEACRDGLRAVMECRNVTHLLQQELTEAQKGFQDVEAQAATCNHTVMALMASLDAEKAQGQKKVEELEGEITTLNHKLQDASAEVERLRRENQVLSVRIADKKYYPSSQDSSSAAAPQLLIVLLGLSALLQ
# How the values were obtained:
# Details in all cases: glycan lost; control: wild type
# [1] = HBsAg ELISA of supernatant; 293T and Huh7
# [2] = confocal co-localisation, transient and stable 293T
# [3] = sucrose gradient fractionation, stable 293T, Western blot
# [4] = confocal co-localisation, transfected 293T
# [5] = confocal co-localisation, stable 293T
Protein,other: restriction of virus release [1],localisation_or_trafficking [2],localisation_or_trafficking [3],localisation_or_trafficking [4],localisation_or_trafficking [5]
B1,no change,increases,changes,,
B2,,,changes,no change,no change
B3,,,changes,no change,
